Measured values published in the supplement of paper PMC12338614.

B1: library; numbered along this chain (parent)
chain: MEVVDPQQLGMFTEGELMSVGMDTFIHRIDSTEVIYQPRRKRAKLIGKYLMGDLLGEGSYGKVKEVLDSETLCRRAVKILKKKKLRRIPNGEANVKKEIQLLRRLRHKNVIQLVDVLYNEEKQKMYMVMEYCVCGMQEMLDSVPEKRFPVCQAHGYFCQLIDGLEYLHSQGIVHKDIKPGNLLLTTGGTLKISDLGVAEALHPFAADDTCRTSQGSPAFQPPEIANGLDTFSGFKVDIWSAGVTLYNITTGLYPFEGDNIYKLFENIGKGSYAIPGDCGPPLSDLLKGMLEYEPAKRFSIRQIRQHSWFRKKHPPAEAPVPIPPSPDTKDRWRSMTVVPYLEDLHGADEDEDLFDIEDDIIYTQDFTVPGQVPEEEASHNGQRRGLPKAVCMNGTEAAQLSTKSRAEGRAPNPARKACSASSKIRRLSACKQQ

Variants of: B1
Experiment: STK11 functional score (HeLa growth suppression), rescaled enrichment; synonymous median = 1, nonsense median = 0 (normalised score)
Details: with HeLa; variant type: missense
How it was run: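 The functional score takes the post/pre-selection log ratio, corrects it to wild type, rescales it to synonymous and nonsense medians, and merges it over codons and replicate transfections, with error from bootstrapping. Counts came from tiled gDNA amplicons sequenced on NextSeq (~2 million reads per tile). The libraries were POPCode codon-randomised, codon-optimised STK11 integrated by Bxb1 at an AAVS1 landing pad in HeLa, three regions with three transfections each.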

STK11 functional score: each site, then its substitutions
A389: Q 1.18; I 1.59; V 0.744; G 1.46; K 1.61; H 1.51; C 1.51; L 1.54; T 1.25; E 1.52; P 1.3; F 1.33; W 1.04; Y 1.15; D 1.2; R 1.56; S 1.38
N393: V 0.689; S 1.09; F 1.52; G 1.36; C 1.54; I 1.39; P 1.59; R 1.07; Y 1.51; L 1.16; D 1.07; M 1.48; H 1.51; A 1.59; K 0.96; E 1.48; T 1.48
G394: P 1.52; H 1.6; N 0.969; Y 1.38; E 1.26; I 1.51; W 1.29; M 1.62; A 1.32; K 1.6; S 1.46; F 1.17; C 1.28; D 1.32; Q 1.35; L 1.59; R 1.17; V 1.29
E396: A 1.29; G 1.55; F 1.41; D 1.45; L 1.14; H 1.55; I 1.57; C 1.26
M392: V 1.51; D 1.19; L 1.57; W 0.68; A 1.56; S 1.52; N 0.559; C 1.34; P 1.63; Y 1.04; F 1.17; I 1.42; R 0.973; G 1.43
K388: W 1.5; L 0.826; M 1.39; S 1.19; P 0.884; E 1.42; N 1.53; F 1.24; G 1.31; I 0.996; H 1.12; D 1.31; R 1.54; Q 1.21; T 1.42; V 1.3; A 1.17; Y 1.07
C391: H 1.46; S 0.743; V 0.834; L 1.54; R 1.6; M 1.62; T 0.912; G 1.22; I 1.07; F 0.922; W 0.764; A 1.51; E 1.58; N 0.483
P387: D 1.56; H 1.45; R 1.47; A 1.32; C 1.54; K 1; E 1.6; M 1.44; Y 0.935; N 1.63; Q 1.37; L 1.02; G 1.58; W 1.62; T 1.56; F 1.14; I 1.54; V 1.13; S 1.41
V390: G 1.39; E 1.44; Q 1.63; P 1.52; R 1.4; S 1.5; Y 1.41; H 0.912; A 1.51; T 1.59; C 1.06; F 1.18; D 1.4; W 0.447; L 1.22
T395: L 1.23; A 0.877; F 0.847; R 1.58; Y 1.47; K 0.547; D 1.56; M 1.05; G 1.49; I 0.971; W 1.61; H 1.53; V 1.04; N 1.4; S 0.942; C 1.61; Q 1.5; E 1.33; P 1.32
L386: S 1.45; Q 1.37; P 0.743; V 1.06; R 1.43; N 0.528; T 1.6; W 1.13
